Broadly, the Kd is the equilibrium constant for the complex coming apart. A low value points to higher affinity.

Our source for the Kd values is patent US20230265217A1 (published 2023).

This assay concerns the target SARS-CoV-2 S protein trimer (Delta B.1.617.2 India variant) [SPN-C52He] (SARS-CoV-2, UniProt P0DTC2 16-1213). As to the kind of experiment: SPR. A general note: Surface plasmon resonance follows binding to a sensor surface in real time, without labels.

B1: 6A-3 (VHH)
VHH: EVQLVESGGGLVQPGGSLRLSCAASGFTFSPSWMGWFRQAPGKEREFVATINEYGGRNYADSVKGRFTISADNSKNTAYLQMNSLKPEDTAVYYCARVDRDFDYWGQGTLVTVSS
In turn, B1 registered an equilibrium dissociation constant (Kd) of 0.449 nM.

B2: 3-31 (VHH)
VHH: EVQLVESGGGLVQPGGSLRLSCAASGSTFSINAMGWFRQAPGKEREFVAGITSSGGYTNYADSVKGRFTISADNSKNTAYLQMNSLKPEDTAVYYCAADGVPEYSDYASGPVWGQGTLVTVSS
For the molecule B2, the Kd is less than 0.016 nM.
